Data as given in article PMC8085772 (The Journal of Cell Biology, 2021).

What was measured:
[1] = target: the molecule itself; assay: non-reducing SDS-PAGE with immunoblot
[2] = target: the molecule itself; assay: non-reducing SDS-PAGE with Coomassie staining + mass spectrometry of the bands

Row | Protein | stoichiometry N [1] | stoichiometry N [2]
1 | his-GB1-tagged C-domain of CRT_(Del52) (domain or fragment, human) MKDKQDEEQRTRRMMRTKMRMRRMRRTRRKMRRKMSPARPRTSCREACLQGWTEA | 2 | –
2 | FLAG-His-tagged full-length CRT_(Del52), purified (natural protein, human) EPAVYFKEQFLDGDGWTSRWIESKHKSDFGKFVLSSGKFYGDEEKDKGLQTSQDARFYALSASFEPFSNKGQTLVVQFTVKHEQNIDCGGGYVKLFPNSLDQTDMHGDSEYNIMFGPDICGPGTKKVHVIFNYKGKNVLINKDIRCKDDEFTHLYTLIVRPDNTYEVKIDNSQVESGSLEDDWDFLPPKKIKDPDASKPEDWDERAKIDDPTDSKPEDWDKPEHIPDPDAKKPEDWDEEMDGEWEPPVIQNPEYKGEWKPRQIDNPDYKGTWIHPEIDNPEYSPDPSIYAYDNFGVLGLDLWQVKSGTIFDNFLITNDEAYAEEFGNETWGVTKAAEKQMKDKQDEEQRTRRMMRTKMRMRRMRRTRRKMRRKMSPARPRTSCREACLQGWTEA | – | 2
